Results from patent US20020160955A1 (published 2002).
Positions count from the first letter of the chain named.

Experiments:
Assay in all cases: competitive phage ELISA
[1] = molecular target: T1, IGF-I P2A (G1S-A70V background) displayed on phage (human; bacteriophage M13)
T1 construct: range 249-406; monovalent M13 phage display
Description: (§1) Phage particles were harvested and resuspended in PBS buffer as described in Lowman, H. B., “Phage Display of Peptide Libraries on Protein Scaffolds,” in Cabilly, S. (ed.), Combinatorial Peptide Library Protocols (Humana Press Inc.: Totowa, N.J., 1998), pp. 249-264. Then phage concentrations were normalized to yield a maximal ELISA signal of 0.2-0.4 for each mutant (Lowman, in Cabilly, S. (ed.), supra). Threefold serial dilutions of soluble competitor were prepared on non-absorbent microtiter plates (Nunc, F, 96 wells) with binding buffer (0.5% TWEEN™ 20/PBS) containing phage at the previously-determined concentrations. […] After blocking, the plates containing immobilized target were washed with 0.05% TWEEN™/PBS buffer and subsequently incubated with 80 μl/well of the premixed phage-competitor solutions for 1 hour at room temperature. After washing, bound phage was detected with 80 μl/well of a solution containing a primary rabbit anti-phage polyclonal antibody and a secondary goat anti-rabbit monoclonal antibody-horseradish peroxidase conjugate in 0.5% TWEEN 20™/PBS. o-Phenylenediamine (Sigma) and tetramethylbenzidine (Kirkegaard and Perry) were used as chromogenic substrates, resulting in product detection at 492 and 450 nm, respectively. IC₅₀ values were determined by fitting the binding data to a generic saturation curve (Lowman, in Cabilly, S. (ed.), supra). […] Numbers in Table I represent mean +standard deviation of individually assessed IC₅₀ values.
(§2) At least two different clones of every mutant were tested.

[2] = molecular target: T2, IGF-I V44A (G1S-A70V background) displayed on phage (human; bacteriophage M13)
T2 construct: monovalent M13 phage display
T2 chain: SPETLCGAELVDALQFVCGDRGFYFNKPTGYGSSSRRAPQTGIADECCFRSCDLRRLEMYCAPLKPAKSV
Description: as §1, §2

[3] = molecular target: T3, wild-type IGF-I displayed on phage (human; bacteriophage M13, UniProt P69168 267-424)
T3 construct: range 249-406; monovalent M13 phage display; also called IGF-I WT; double-mutation restoring wild-type IGF-I
Description: as §1, §2

[4] = molecular target: T4, IGF-I G32A (G1S-A70V background) displayed on phage (human; bacteriophage M13)
T4 construct: monovalent M13 phage display; not shown: M13 gene III fragment (residues 249-406, display partner) and the junction to it
T4 chain: T2 chain with G32A, A44V
Description: as §1, §2

[5] = molecular target: T5, IGF-I N26A (G1S-A70V background) displayed on phage (human; bacteriophage M13, not fully specified; Displayed monovalently on M13 phage as a C-terminal fusion to the gene III fragment, which is left out of the letters.)
T5 construct: monovalent M13 phage display; not shown: Display carrier: M13 gene III fragment (residues 249-406) and its junction
T5 chain: T2 chain with N26A, A44V
Description: as §1, §2

[6] = molecular target: T6, IGF-I K68A (G1S-A70V background) displayed on phage (human; bacteriophage M13, UniProt P69168 267-424)
T6 chain: T2 chain with A44V, K68A
Description: as §1, §2

[7] = molecular target: T7, IGF-I K65A (G1S-A70V background) displayed on phage (human; bacteriophage M13)
T7 construct: monovalent M13 phage display; not shown: M13 gene III protein fragment (residues 249-406), the phage display carrier, and its junction to IGF-I
T7 chain: T2 chain with A44V, K65A
Description: as §1, §2

[8] = molecular target: T8, IGF-I G42A (G1S-A70V background) displayed on phage (human; bacteriophage M13)
T8 construct: monovalent M13 phage display
T8 chain: T2 chain with G42A, A44V
Description: as §1, §2

[9] = molecular target: T9, IGF-I R21A (G1S-A70V background) displayed on phage (human; bacteriophage M13, not fully specified; Displayed monovalently on M13 phage as a C-terminal fusion to the gene III fragment, which is left out of the letters.)
T9 construct: monovalent M13 phage display; not shown: Display carrier: M13 gene III fragment (residues 249-406) and its junction
T9 chain: T2 chain with R21A, A44V
Description: as §1, §2

[10] = molecular target: T10, IGF-I L54A (G1S-A70V background) displayed on phage (human; bacteriophage M13)
T10 construct: monovalent M13 phage display
T10 chain: T2 chain with A44V, L54A
Description: as §1, §2

[11] = molecular target: T11, IGF-I D53A (G1S-A70V background) displayed on phage (human; bacteriophage M13)
T11 construct: monovalent M13 phage display
T11 chain: T2 chain with A44V, D53A
Description: as §1, §2

[12] = molecular target: T12, IGF-I R56A (G1S-A70V background) displayed on phage (human; bacteriophage M13)
T12 construct: monovalent M13 phage display
T12 chain: T2 chain with A44V, R56A
Description: as §1, §2

[13] = molecular target: T13, IGF-I R37A (G1S-A70V background) displayed on phage (human; bacteriophage M13)
T13 construct: monovalent M13 phage display
T13 chain: T2 chain with R37A, A44V
Description: as §1, §2

[14] = molecular target: T14, IGF-I Q15A (G1S-A70V background) displayed on phage (human; bacteriophage M13)
T14 construct: monovalent M13 phage display
T14 chain: T2 chain with Q15A, A44V
Description: as §1, §2

[15] = molecular target: T15, IGF-I G19A (G1S-A70V background) displayed on phage (human; bacteriophage M13)
T15 construct: monovalent M13 phage display
T15 chain: T2 chain with G19A, A44V
Description: as §1, §2

B1: human IGFBP-1 (other, UniProt P08833 26-259, looked up)
chain: APWQCAPCSAEKLALCPPVSASCSEVTRSAGCGCCPMCALPLGAACGVATARCARGLSCRALPGEQQPLHALTRGQGACVQESDASAPHAAEAGSPESPESTEITEEELLDNFHLMAPSEEDHSILWDAISTYDGSKALHVTNIKKWKEPCRIELYRVVESLAKAQETSGEEISKFYLPNCNKNGFYHSRQCETSMDGEAGLCWCVYPWNGKRIPGSPEIRGDPNCQIYFNVQN
notes: secreted recombinant protein purified from conditioned medium
- IC50 [1]: 11 nM
- IC50 [2]: 18.8 nM
- IC50 [3]: 8.4 nM
- IC50 [4]: 10.9 nM
- IC50 [5]: 9.1 nM
- IC50 [6]: 10.5 nM
- IC50 [7]: 12.4 nM
- IC50 [8]: 15.7 nM
- IC50 [9]: 7.1 nM
- IC50 [10]: 23.1 nM
- IC50 [11]: 15.3 nM
- IC50 [12]: 13.1 nM
- IC50 [13]: 12.3 nM
- IC50 [14]: 13.9 nM
- IC50 [15]: 11 nM
